# Earlier results in publication PMC7920998.
# Tested on: Glu122
# Assay: kinetics
# Settings: enzyme reacting with O2 (non-native substrate); further details not given
substance,measurement,value
"Cytochrome c-dependent nitric oxide reductase (cNOR, PdNOR) (Paracoccus denitrificans)",pKa,~ 6.6
